We go through seven substances from patent publication US20200024330A1.

Holding throughout (test): cell-based or functional assay
For assay [1], the target named is HIV-1 MGRM-F1-022 Env (pseudovirus) (HIV-1).
The target of assay [2] is HIV-1 Env of pseudovirus APV_6, clade B (HIV-1).
Assay [3] addresses HIV-1 MGRM-C-004 Env (HIV-1).
The target of assay [4] is HIV-1 Env of isolate MGRM-D-020 (clade D) (HIV-1).
Assay [5] addresses HIV-1 MGRM-A-012 envelope glycoprotein (Env) (HIV-1).
Assay [6] deals with HIV-1 Env of isolate MGRM-G-019 (clade G pseudovirus) (HIV-1).
For assay [7], the target named is HIV-1 Env of pseudovirus APV_13, clade B (HIV-1).
Assay [8] addresses HIV-1 MGRM-A-006 envelope glycoprotein (Env) (HIV-1).
Assay [9] concerns the target HIV-1 Env of isolate MGRM-G-015 (clade G pseudovirus) (HIV-1).
For assay [10], the target named is HIV-1 MGRM-C-025 Env (HIV-1).
Assay [11] has as its target HIV-1 97ZA012 envelope glycoprotein (Env) on pseudovirus (HIV-1).
Assay [12] deals with HIV-1 Env of isolate MGRM-D-016 (clade D) (HIV-1).
The target in assay [13] is HIV-1 Env of isolate MGRM-G-017 (clade G pseudovirus) (HIV-1).
Assay [14] has as its target HIV-1 MGRM-A-001 envelope glycoprotein (Env) (HIV-1).
Assay [15] has as its target HIV-1 MGRM-F1-016 Env (pseudovirus) (HIV-1).
The target in assay [16] is HIV-1 Env of isolate PVO.4 (HIV-1).
For assay [17], the target named is HIV-1 Env of isolate MGRM-C-023 (HIV-1).
Assay [18] deals with HIV-1 Env of isolate MGRM-C-009 (HIV-1).
The target in assay [19] is HIV-1 Env of isolate 92TH021 (CRF01_AE), on pseudovirus (HIV-1).
The target in assay [20] is HIV-1 Env of isolate MGRM-AG-012 (CRF_AG), on pseudovirus (HIV-1).
The target in assay [21] is HIV-1 Env of isolate MGRM-Chronic-B-002 (HIV-1).
The target in assay [22] is HIV-1 Env of isolate MGRM-AG-005 (CRF_AG), on pseudovirus (HIV-1).
Assay [23] deals with HIV-1 Env of isolate MGRM-C-022 (HIV-1).
Assay [24] deals with HIV-1 MGRM-C-027 envelope glycoprotein (Env) on pseudovirus (HIV-1).
Assay [25] concerns the target HIV-1 Env of isolate 92WR009 (HIV-1).
Assay [26] has as its target HIV-1 JR-CSF Env F468A (HIV-1 (isolate JR-CSF)) (UniProt P20871).
Assay [27] deals with HIV-1 Env of isolate MGRM-D-019 (HIV-1).
In assay [28] the target is HIV-1 Env of isolate MGRM-Chronic-B-001 (HIV-1).
Assay [29] addresses HIV-1 Env of isolate 92WR024 (HIV-1).
The target in assay [30] is HIV-1 Env of isolate 98CN009 (HIV-1).
Assay [31] deals with HIV-1 Env of isolate MGRM-F1-006 (subtype F), on pseudovirus (HIV-1).
In assay [32] the target is HIV-1 Env of isolate MGRM-A-013 (clade A), on pseudovirus (HIV-1).
Assay [33] concerns the target HIV-1 Env of isolate MGRM-AE-007 (CRF01_AE), on pseudovirus (HIV-1).
In assay [34] the target is HIV-1 JR-CSF Env E466A (HIV-1 (isolate JR-CSF)) (UniProt P20871).

Chain of 1443_C16 (PG16) (TCN-116) (antibody) (VH): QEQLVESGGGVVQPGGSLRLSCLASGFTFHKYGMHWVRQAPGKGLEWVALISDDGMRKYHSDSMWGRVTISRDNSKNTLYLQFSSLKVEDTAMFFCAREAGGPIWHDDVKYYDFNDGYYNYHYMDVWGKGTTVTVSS
Chain of 1443_C16 (PG16) (TCN-116) (antibody) (VL): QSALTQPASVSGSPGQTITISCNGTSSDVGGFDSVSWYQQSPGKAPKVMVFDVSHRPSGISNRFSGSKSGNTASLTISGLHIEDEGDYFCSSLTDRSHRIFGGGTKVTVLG

2F5 (antibody): the IC50 (µg/ml), pseudovirus neutralization is 1.26 µg/mL in assay [1]; 0.25 µg/mL in assay [2]; over 50 µg/mL in assay [4]; 2.36 µg/mL in [5]; over 50 µg/mL in [6]; 3.81 µg/mL in assay [7]. For the same substance, the IC50 (µg/ml), pseudovirus neutralization in assay [8] is 15.7 µg/mL; in assay [9] it was 0.43 µg/mL; in [11], over 50 µg/mL; in assay [12], 9.85 µg/mL; in assay [13], 0.6 µg/mL; in assay [14], over 50 µg/mL. In addition, the IC50 (µg/ml), pseudovirus neutralization in [15] was determined as 21.5 µg/mL. Besides, the IC50 in assay [3] and in [10] was over 50 µg/mL each time.

Regarding 2G12 (antibody), the IC50 (µg/ml), pseudovirus neutralization in [1] was over 50 µg/mL; in assay [2], 1.9 µg/mL; in [4], over 50 µg/mL; in assay [5], over 50 µg/mL; in [6] it was 31 µg/mL; in assay [7], 9.24 µg/mL. For the same substance, the IC50 (µg/ml), pseudovirus neutralization in [8] is 13.8 µg/mL; in assay [9] it was over 50 µg/mL; in assay [11], over 50 µg/mL; in [12], over 50 µg/mL; in assay [13], over 50 µg/mL; in [14], over 50 µg/mL. This substance also registered an IC50 (µg/ml), pseudovirus neutralization in assay [15] of over 50 µg/mL. In addition, the half-maximal inhibitory concentration (IC50) in [3] and in [10] was over 50 µg/mL throughout.

Regarding 4E10 (antibody), the IC50 (µg/ml), pseudovirus neutralization was 1.01 µg/mL in assay [1]; 1.1 µg/mL in [2]; over 50 µg/mL in [4]; 4.27 µg/mL in [5]; 6.53 µg/mL in assay [6]; 7.33 µg/mL in assay [7]. The IC50 (µg/ml), pseudovirus neutralization was 9.87 µg/mL in [8]; 1.07 µg/mL in assay [9]; 4.7 µg/mL in assay [11]; 15.4 µg/mL in assay [12]; 1.14 µg/mL in assay [13]; 15.1 µg/mL in assay [14]. The substance further had an IC50 (µg/ml), pseudovirus neutralization in assay [15] of 7.61 µg/mL. The IC50 in assay [3] was found to be 24.2 µg/mL; in assay [10], 5.58 µg/mL.

Substance 1443_C16 (PG16) (TCN-116) (antibody) returned an IC50, pseudovirus neutralization (TZM-bl) in [16] of 12.3 µg/mL. In addition, the IC50 (µg/ml), pseudovirus neutralization is 0.08 µg/mL in assay [1]; 0.29 µg/mL in assay [2]; 16.3 µg/mL in assay [4]; 20.7 µg/mL in assay [5]; 1.21 µg/mL in assay [6]; over 50 µg/mL in [7]. Besides, the IC50 (µg/ml), pseudovirus neutralization in [8] was over 50 µg/mL; in assay [9] it was 5.33 µg/mL; in assay [11], 2.55 µg/mL; in [12], 0.02 µg/mL; in assay [13] it was 0.02 µg/mL; in assay [14], over 50 µg/mL. Also, the IC50 (µg/ml), pseudovirus neutralization in assay [15] was 1.12 µg/mL. Besides, the half-maximal inhibitory concentration (IC50) stood at 5.09 µg/mL in assay [3] and 0.04 µg/mL in [10].

In the case of 1495_C14 (PGC14) (antibody), the IC50 (µg/ml), pseudovirus neutralization was over 50 µg/mL in assay [1]; 23 µg/mL in [2]; over 50 µg/mL in assay [4]; over 50 µg/mL in assay [5]; over 50 µg/mL in assay [6]; over 50 µg/mL in [7]. Besides, the IC50 (µg/ml), pseudovirus neutralization in assay [8], in assay [9], in [11], in [12], in assay [13] and in assay [14] was over 50 µg/mL throughout. The same substance yielded an IC50 (µg/ml), pseudovirus neutralization in [15] of over 50 µg/mL. Further, the 50% inhibitory concentration (IC50) in assay [3] and in assay [10] was over 50 µg/mL throughout.

For 5147_N06 (PGT-130) (antibody), the IC50 is 0.151 µg/mL in assay [17]; over 50 µg/mL in assay [18]; 5.17 µg/mL in assay [16]; over 50 µg/mL in [21]; 0.127 µg/mL in assay [23]; over 50 µg/mL in assay [27]. Besides, the values for the IC50 in assay [28] and in [30] were over 50 µg/mL and 0.136 µg/mL, respectively. For the same substance, the IC50, single-round pseudovirus neutralization in assay [19] was 0.009 µg/mL; in assay [20], over 50 µg/mL; in [22], 0.54 µg/mL; in [32], over 50 µg/mL; in assay [33], 0.083 µg/mL. The IC50 (ug/ml), neutralizing activity in assay [24] amounted to 0.0052 µg/mL. Also, the neutralization IC50 in assay [25] is 1.27 µg/mL; in assay [29], over 50 µg/mL. Further, the Fold IC50 increase relative to wild-type stood at 0.4 fold in assay [26] and 1.7 fold in [34]. Also, the IC50, pseudovirus neutralization in assay [31] is over 50 µg/mL.

On to b12 (antibody), for which the IC50 (µg/ml), pseudovirus neutralization in assay [1] was over 50 µg/mL; in assay [2] it was over 50 µg/mL; in assay [4], over 50 µg/mL; in [5], over 50 µg/mL; in assay [6], 3.77 µg/mL; in assay [7], over 50 µg/mL. In addition, the IC50 (µg/ml), pseudovirus neutralization in assay [8] was 13.6 µg/mL; in assay [9], over 50 µg/mL; in assay [11], over 50 µg/mL; in assay [12], 1.12 µg/mL; in assay [13], over 50 µg/mL; in [14] it was over 50 µg/mL. The substance also showed an IC50 (µg/ml), pseudovirus neutralization in assay [15] of over 50 µg/mL. For the same substance, the IC50 in assay [3] is 5.46 µg/mL; in [10], over 50 µg/mL.

As a reminder, the IC50 is the concentration needed to halve the response being measured. Low values mean inhibition by little substance, high ones a need for much substance.
